The target of assay [1] is T1, Purified human LRIG1 extracellular domain fused to a HIS tag (R&D Systems) (human) (UniProt Q96JA1).
T1 sequence: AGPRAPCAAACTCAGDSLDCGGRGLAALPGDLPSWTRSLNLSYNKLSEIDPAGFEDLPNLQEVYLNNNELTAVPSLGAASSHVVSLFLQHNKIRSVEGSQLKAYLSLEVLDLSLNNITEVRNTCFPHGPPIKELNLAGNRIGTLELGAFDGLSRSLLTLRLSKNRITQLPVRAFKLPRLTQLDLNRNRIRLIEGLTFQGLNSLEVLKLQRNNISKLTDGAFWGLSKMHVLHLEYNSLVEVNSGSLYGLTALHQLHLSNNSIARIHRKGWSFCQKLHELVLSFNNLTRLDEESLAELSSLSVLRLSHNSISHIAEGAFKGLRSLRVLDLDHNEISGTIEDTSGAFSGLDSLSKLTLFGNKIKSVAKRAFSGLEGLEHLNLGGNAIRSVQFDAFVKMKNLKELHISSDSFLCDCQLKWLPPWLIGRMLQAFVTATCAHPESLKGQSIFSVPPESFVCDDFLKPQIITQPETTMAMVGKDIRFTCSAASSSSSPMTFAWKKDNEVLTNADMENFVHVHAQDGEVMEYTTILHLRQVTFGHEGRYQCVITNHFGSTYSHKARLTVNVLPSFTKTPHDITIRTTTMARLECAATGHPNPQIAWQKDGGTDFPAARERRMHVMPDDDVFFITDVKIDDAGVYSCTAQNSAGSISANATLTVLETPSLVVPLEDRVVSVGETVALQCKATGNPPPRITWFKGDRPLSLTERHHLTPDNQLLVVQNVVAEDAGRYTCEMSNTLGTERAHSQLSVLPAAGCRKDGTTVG
In words: biosensor binning; saturating mab5 20 ug/mL, competitor mab6 5 ug/mL.

The target in assay [2] is T1, Purified human LRIG1 extracellular domain fused to a HIS tag (R&D Systems) (human). The experiment in a line: blocking ELISA: LRIG1 ECD-His coated, antibody 3.3 ug/ml, oligomerized VISTA 50 nM, avidin-HRP. For orientation: In an ELISA, binding on a coated surface is turned into a signal by an enzyme label.
For assay [3] the target is unchanged. In words: biosensor binning; saturating mab5 20 ug/mL, competitor mab2 5 ug/mL.
Assay [4] shares this target. The experiment in a line: biosensor binning; saturating mab5 20 ug/mL, competitor mab4 5 ug/mL.
The target is the same in assay [5]. The experiment in a line: biosensor binning; saturating mab5 20 ug/mL, competitor mab5 5 ug/mL.
Assay [6] addresses T2, Purified human LRIG1 extracellular domain fused to a HIS tag (R&D Systems) (human, UniProt Q96JA1 35-794).
T2 construct: also called human LRIG1-His; hLRIG1-His; not shown: HIS tag
T2 sequence: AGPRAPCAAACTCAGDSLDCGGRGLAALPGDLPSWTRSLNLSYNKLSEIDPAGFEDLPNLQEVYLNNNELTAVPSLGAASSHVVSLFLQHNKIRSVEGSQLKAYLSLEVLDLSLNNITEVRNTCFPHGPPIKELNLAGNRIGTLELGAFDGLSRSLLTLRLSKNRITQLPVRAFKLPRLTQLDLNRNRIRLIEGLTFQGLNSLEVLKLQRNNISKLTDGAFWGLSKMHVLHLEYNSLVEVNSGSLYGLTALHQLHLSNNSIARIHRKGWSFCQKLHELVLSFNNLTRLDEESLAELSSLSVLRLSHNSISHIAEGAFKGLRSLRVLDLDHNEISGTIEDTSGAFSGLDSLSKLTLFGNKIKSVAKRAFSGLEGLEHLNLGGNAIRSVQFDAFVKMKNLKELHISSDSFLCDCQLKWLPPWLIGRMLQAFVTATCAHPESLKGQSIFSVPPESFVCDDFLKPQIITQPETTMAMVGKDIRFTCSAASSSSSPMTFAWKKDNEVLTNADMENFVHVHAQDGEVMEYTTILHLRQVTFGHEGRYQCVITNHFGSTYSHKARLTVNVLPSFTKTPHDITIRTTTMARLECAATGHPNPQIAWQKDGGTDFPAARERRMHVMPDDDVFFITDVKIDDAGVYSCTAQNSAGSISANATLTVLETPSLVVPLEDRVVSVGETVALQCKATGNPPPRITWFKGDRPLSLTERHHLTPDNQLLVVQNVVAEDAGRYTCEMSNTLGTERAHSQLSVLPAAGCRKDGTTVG
The experiment in a line: blocking ELISA: LRIG1 ECD-His coated, antibody 3.3 ug/ml, oligomerized VISTA 50 nM, avidin-HRP. The method, then: To identify LRIG1-targeted antibodies with the ability to block the interaction of LRIG1 and VISTA, purified LRIG1 and VISTA proteins were incubated in the presence of various LRIG1-targeted or control antibodies, or without antibody, and protein interaction was evaluated by ELISA. Purified human LRIG1 extracellular domain fused to a HIS tag (R&D Systems) was diluted in phosphate buffered saline (PBS) (Corning) to a concentration of 3 μg/ml and 100 ul was added to each well of a 96-well ELISA plate (Thermo Fisher, 44-2404-21). After incubating the plate at 4° C. overnight, the plate was washed three times with 300 μl of PBS with 0.05% TWEEN (VWR) (PBST) per well. The plate was then blocked for an hour with 200 μl of 2% bovine serum albumin (BSA) (Sigma) in PBST per well at room temperature with gentle rocking. Thereafter, the 2% BSA in PBST was removed and 50 ul of antibody at 3.3 ug/ml in 2% BSA in PBST was added to the wells. The plate was incubated for 10 minutes at room temperature with gentle rocking. Afterwards, 50 nM of oligomerized VISTA in 100 ul PBS buffer was added per well. […] The plate was read using a plate reader (Molecular Devices) at absorbance of 450 nm. Percent blockade of LRIG1-VISTA interaction was calculated as the fraction of signal obtained in each experimental samples of the no antibody sample less background signal.

This is an account of results in patent US20210085785A1 (TRUEBINDING, published 2021).

B1: mab5 (antibody, V domains shown)
VH: QVQLVQSGAEVKKPGASVKVSCKASGYTFTSYYLHWVRQAPGQRLEWMGWIYPGNVNTKYNQKFQGRVTITADKSASTAYMELSSLRSEDTAVYFCAREELGGFAYWGQGTLVTVSS
VL: DIQMTQSPSSLSASVGNRVTITCRASQDISNYLSWYQQKPGKVPKLLIYYTSILHSGVPSRFSGSGSGTDYSLTISSLQPEDVATYFCQQGNTLPRTFGQGTKVEIK
Regarding B1, the competition matrix entry (not explained) in assay [1], in assay [3], in assay [4] and in assay [5] was 0 throughout. Also, the percent of LRIG1-VISTA binding relative to an unblocked sample in assay [2] is 60%.

B2: mab4 (IMT300) (antibody, V domains shown)
VH: QVQLVQSGAEVKKPGASVKVSCKASGYTFTSYYLHWVRQAPGQRLEWMGWIYPGNVNTKYNQKFQGRVTITADKSASTAYMELSSLRSEDTAVYFCAREELGGFAYWGQGTLVTVSS
VL: DIQMTQSPSSVSASIGDRVTITCRASQDISNYLSWYQQKPGKAPKLLIYYTSILHSGVPSRFSGSGSGTDYTLTISSLQPEDFATYFCQQGNTLPRTFGGGTKVEIK
notes: also called hLRIG1 mAb IMT300; Immutics PP14384
Take B2: the “percent of LRIG1-VISTA binding relative to an unblocked sample” value in assay [6] stood at 44%.

B3: mab6 (antibody, V domains shown)
VH: QVQLVQSGAEVKKPGASVKVSCKASGYTFTSYYLHWVRQAPGQRLEWIGWIYPGNVNTKYNEKFQGRVTLTADKSASTAYMELSSLRSEDTAVYFCAREELGGFAYWGQGTLVTVSS
VL: DIQMTQSPSSVSASIGDRVTITCRASQDISNYLSWYQQKPGKAPKLLIYYTSILHSGVPSRFSGSGSGTDYTLTISSLQPEDFATYFCQQGNTLPRTFGGGTKVEIK
notes: also called Immutics PP14387
For the molecule B3, the “percent of LRIG1-VISTA binding relative to an unblocked sample” value in assay [6] is 43%.
